In patent publication US20160002321A1 (HER MAJESTY THE QUEEN IN RIGHT OF CANADA AS REPRESENTED BY …, published 2016):

T1: recombinant lethal factor (rLF) (Bacillus anthracis, UniProt P15917 34-809)
T1 sequence: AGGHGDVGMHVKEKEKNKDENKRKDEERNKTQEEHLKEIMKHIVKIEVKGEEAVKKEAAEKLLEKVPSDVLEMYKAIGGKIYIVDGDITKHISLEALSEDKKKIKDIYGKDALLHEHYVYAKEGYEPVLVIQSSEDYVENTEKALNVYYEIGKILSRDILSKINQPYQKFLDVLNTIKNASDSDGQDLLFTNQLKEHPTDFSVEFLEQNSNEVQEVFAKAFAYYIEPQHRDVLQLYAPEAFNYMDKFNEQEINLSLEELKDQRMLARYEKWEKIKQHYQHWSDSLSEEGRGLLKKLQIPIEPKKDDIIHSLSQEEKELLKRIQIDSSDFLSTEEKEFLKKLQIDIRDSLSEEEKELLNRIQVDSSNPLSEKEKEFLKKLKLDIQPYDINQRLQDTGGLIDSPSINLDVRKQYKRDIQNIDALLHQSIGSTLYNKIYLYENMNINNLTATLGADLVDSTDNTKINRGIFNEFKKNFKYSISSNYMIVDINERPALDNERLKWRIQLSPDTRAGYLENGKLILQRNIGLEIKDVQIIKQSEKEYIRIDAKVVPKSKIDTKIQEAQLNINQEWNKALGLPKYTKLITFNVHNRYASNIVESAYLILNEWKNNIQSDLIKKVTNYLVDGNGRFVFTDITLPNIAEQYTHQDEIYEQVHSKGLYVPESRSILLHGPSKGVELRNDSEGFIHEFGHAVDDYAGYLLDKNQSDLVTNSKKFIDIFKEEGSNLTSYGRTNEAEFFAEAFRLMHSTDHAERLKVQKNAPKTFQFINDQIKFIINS

B1: F20G77 (antibody)
chain 1: EVQLEESGPELVSPGVSVKISCEGSGYTFTDYAMHWVKQSHARGLEWIGVIGSYSGNAHHNLNFKDKATMTVDKSSSTAYMELARLTSDDSAIYYCAY
chain 2: ELVMTQSPLSLPVSLGDQASISCRSSQSIIHSNGDTFLEWFLQKPGQSPKLLIYKVSNRFSGVPDRFSGSGSGTDFTLKISRVEAEDLGVYYCFQGSHVPLTFGAGTKLELK
B2: F20G76 (antibody, V domains shown)
VH: EVQLEESGPELVKPGASVKVSCKASGYSFTDYNMYWVKQSHGTSLEWIGVIDPNNGVTSYNQKFKDKATLTADKSSSTAFMHLNSLTSEDSAVYYCSRGGLDYWGQGTTLTVSS
VL: ELVMTQSPLSLPVSLGDQASISCRSSQSIIHSNGDTFLEWFLQKPGQSPKLLIYKVSNRFSGVPDRFSGSGSGTDFTLKISRVEAEDLGVYYCFQGSHVPLTFGAGTKLELKR

How the values were obtained:
[1] = target: recombinant anthrax protective antigen (rPA) (Bacillus anthracis, UniProt P13423 30-764); assay: SPR, Biacore 2000, rPA on a CM5 chip, MAb in solution
Chain of recombinant anthrax protective antigen (rPA) (P13423 30-764): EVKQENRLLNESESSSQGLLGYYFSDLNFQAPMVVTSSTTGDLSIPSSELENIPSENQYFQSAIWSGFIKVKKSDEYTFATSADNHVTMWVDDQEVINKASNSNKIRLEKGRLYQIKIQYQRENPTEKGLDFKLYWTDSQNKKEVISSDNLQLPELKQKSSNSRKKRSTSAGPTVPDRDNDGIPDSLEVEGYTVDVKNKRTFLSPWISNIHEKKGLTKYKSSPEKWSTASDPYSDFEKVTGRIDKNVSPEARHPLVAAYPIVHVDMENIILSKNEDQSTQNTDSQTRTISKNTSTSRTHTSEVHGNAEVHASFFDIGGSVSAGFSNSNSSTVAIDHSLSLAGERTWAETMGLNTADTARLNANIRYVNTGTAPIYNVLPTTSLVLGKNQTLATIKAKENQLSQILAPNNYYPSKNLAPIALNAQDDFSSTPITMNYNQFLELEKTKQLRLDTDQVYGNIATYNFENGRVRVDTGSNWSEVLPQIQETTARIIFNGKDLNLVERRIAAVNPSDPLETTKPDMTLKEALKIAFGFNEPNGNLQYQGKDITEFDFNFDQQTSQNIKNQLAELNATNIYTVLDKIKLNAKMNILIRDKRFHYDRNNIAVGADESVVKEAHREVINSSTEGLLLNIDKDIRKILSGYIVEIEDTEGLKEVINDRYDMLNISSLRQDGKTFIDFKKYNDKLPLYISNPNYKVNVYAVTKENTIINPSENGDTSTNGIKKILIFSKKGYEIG

[2] = target: T1, recombinant lethal factor (rLF); assay: Western immunoblot, 2 µg denatured protein
[3] = target: bovine serum albumin (BSA) (bovine, UniProt P02769 25-607); assay: endpoint ELISA, antigen coated at 100 ng/well
Chain of bovine serum albumin (BSA) (P02769 25-607 limits assumed): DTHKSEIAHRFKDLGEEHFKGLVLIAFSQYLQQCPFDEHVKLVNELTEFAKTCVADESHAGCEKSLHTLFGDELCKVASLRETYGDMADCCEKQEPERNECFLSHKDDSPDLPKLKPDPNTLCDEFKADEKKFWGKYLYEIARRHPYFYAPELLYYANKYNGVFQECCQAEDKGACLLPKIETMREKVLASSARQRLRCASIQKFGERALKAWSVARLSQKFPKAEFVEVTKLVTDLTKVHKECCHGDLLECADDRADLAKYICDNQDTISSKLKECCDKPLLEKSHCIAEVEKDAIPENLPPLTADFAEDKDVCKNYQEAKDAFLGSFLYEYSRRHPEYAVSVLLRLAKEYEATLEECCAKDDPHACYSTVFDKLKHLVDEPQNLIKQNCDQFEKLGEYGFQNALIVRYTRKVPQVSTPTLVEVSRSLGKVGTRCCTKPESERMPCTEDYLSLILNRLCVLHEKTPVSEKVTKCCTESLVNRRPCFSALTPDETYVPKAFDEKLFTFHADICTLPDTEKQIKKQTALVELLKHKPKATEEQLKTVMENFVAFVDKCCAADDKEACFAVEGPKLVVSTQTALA

[4] = target: chymotrypsin digested rPA (47 and 37 kDa fragments) (Bacillus anthracis, UniProt P13423 30-343; P13423 344-764); assay: Western immunoblot of chymotrypsin digested rPA
Chain of chymotrypsin digested rPA (47 and 37 kDa fragments) (P13423 30-343 limits assumed, chain 1 of 2): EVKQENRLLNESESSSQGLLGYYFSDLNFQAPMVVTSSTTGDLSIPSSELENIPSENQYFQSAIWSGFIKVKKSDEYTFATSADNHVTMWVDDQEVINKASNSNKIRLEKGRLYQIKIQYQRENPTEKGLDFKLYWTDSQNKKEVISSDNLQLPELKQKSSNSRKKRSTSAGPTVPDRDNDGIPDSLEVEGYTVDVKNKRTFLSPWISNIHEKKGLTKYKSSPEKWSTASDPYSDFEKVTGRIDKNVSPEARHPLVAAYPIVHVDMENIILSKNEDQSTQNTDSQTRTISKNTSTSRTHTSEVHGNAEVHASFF
Chain of chymotrypsin digested rPA (47 and 37 kDa fragments) (P13423 344-764 limits assumed, chain 2 of 2): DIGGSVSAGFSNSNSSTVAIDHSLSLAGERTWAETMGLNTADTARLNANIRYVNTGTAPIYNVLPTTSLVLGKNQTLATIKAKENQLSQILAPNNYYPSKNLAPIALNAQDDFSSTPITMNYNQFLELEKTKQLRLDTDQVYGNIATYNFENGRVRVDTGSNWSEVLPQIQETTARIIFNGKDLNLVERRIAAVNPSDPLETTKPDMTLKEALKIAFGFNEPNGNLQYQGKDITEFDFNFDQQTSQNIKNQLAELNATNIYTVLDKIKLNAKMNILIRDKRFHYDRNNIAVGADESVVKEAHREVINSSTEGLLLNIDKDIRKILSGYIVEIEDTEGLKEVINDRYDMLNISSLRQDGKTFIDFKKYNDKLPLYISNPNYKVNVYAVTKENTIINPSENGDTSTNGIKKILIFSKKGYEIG

Binder	Kd [1]	koff [1]	kon [1]	binding result [2]	binding result [3]	binding result [4]
B1	0.46 nM	1.4e-06 s⁻¹	3100 M⁻¹ s⁻¹	–	–	–
B2	18.5 nM	6.8e-05 s⁻¹	4000 M⁻¹ s⁻¹	no binding	no binding	no binding
